According to patent US20090192084A1:

How the values were obtained:
[1] = biological target: PLAP (human) (UniProt Q9Y263); experiment: Flag co-IP, 293 cells, MudPIT MS
[2] = biological target: endogenous NPL4 (human) (UniProt Q8TAT6); experiment: Flag co-IP, 293 cells, MudPIT MS
[3] = biological target: UBR2 (human) (UniProt Q8IWV8); experiment: Flag co-IP, MudPIT MS, DMSO
[4] = biological target: DNA damage-binding protein I. DDB1 (human) (UniProt Q16531); experiment: Flag co-IP, MudPIT MS, DMSO
[5] = biological target: CUL4- and DDB I-associated WDR protein 2, WDR26 (human) (UniProt Q9H7D7); experiment: Flag co-IP, MudPIT MS, DMSO
[6] = biological target: UBR1 (human) (UniProt Q8IWV7); experiment: Flag co-IP, MudPIT MS, DMSO
[7] = biological target: Retinoblastoma-associated factor 600, UBR4 (human) (UniProt Q5T4S7); experiment: Flag co-IP, MudPIT MS, DMSO
[8] = biological target: gp78 (human) (UniProt Q9UKV5); experiment: Flag co-IP, MudPIT MS, DMSO
[9] = biological target: EDD1/UBR5 (human) (UniProt O95071); experiment: Flag co-IP, MudPIT MS, DMSO
[10] = biological target: Praja 2 (human) (UniProt O43164); experiment: Flag co-IP, MudPIT MS, DMSO
[11] = biological target: UBR2 (human) (UniProt Q8IWV8); experiment: Flag co-IP, MudPIT MS, MG132
[12] = biological target: DNA damage-binding protein I. DDB1 (human) (UniProt Q16531); experiment: Flag co-IP, MudPIT MS, MG132
[13] = biological target: Retinoblastoma-associated factor 600, UBR4 (human) (UniProt Q5T4S7); experiment: Flag co-IP, MudPIT MS, MG132
[14] = biological target: gp78 (human) (UniProt Q9UKV5); experiment: Flag co-IP, MudPIT MS, MG132
[15] = biological target: EDD1/UBR5 (human) (UniProt O95071); experiment: Flag co-IP, MudPIT MS, MG132
[16] = biological target: Elongin C (human) (UniProt Q15369); experiment: Flag co-IP, MudPIT MS, MG132
[17] = biological target: E6AP ubiquitin-protein ligase, UBE3A (human) (UniProt Q05086); experiment: Flag co-IP, MudPIT MS, MG132
[18] = biological target: E3 ubiquitin-protein ligase1-HUWE1 (human) (UniProt Q7Z6Z7); experiment: Flag co-IP, MudPIT MS, MG132
[19] = biological target: Baculoviral IAP repeat-containing protein 2, IAP2 (human) (UniProt Q13490); experiment: Flag co-IP, MudPIT MS, DMSO
[20] = biological target: CUL3-interacting protein I. KLHL12 (human) (UniProt Q53G59); experiment: Flag co-IP, MudPIT MS, DMSO
[21] = biological target: Kelch-like protein 22. KLEIL22 (human) (UniProt Q53GT1); experiment: Flag co-IP, MudPIT MS, DMSO
[22] = biological target: Cullin 3 (human) (UniProt Q13618); experiment: Flag co-IP, MudPIT MS, DMSO

Elongin C (human), sequence (Q15369 whole entry): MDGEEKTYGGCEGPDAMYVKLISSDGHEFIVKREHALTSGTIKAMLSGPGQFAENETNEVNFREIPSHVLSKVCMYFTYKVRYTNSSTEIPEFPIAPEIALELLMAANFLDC
Kelch-like protein 22. KLEIL22 (human), sequence (Q53GT1 2-634 limits assumed): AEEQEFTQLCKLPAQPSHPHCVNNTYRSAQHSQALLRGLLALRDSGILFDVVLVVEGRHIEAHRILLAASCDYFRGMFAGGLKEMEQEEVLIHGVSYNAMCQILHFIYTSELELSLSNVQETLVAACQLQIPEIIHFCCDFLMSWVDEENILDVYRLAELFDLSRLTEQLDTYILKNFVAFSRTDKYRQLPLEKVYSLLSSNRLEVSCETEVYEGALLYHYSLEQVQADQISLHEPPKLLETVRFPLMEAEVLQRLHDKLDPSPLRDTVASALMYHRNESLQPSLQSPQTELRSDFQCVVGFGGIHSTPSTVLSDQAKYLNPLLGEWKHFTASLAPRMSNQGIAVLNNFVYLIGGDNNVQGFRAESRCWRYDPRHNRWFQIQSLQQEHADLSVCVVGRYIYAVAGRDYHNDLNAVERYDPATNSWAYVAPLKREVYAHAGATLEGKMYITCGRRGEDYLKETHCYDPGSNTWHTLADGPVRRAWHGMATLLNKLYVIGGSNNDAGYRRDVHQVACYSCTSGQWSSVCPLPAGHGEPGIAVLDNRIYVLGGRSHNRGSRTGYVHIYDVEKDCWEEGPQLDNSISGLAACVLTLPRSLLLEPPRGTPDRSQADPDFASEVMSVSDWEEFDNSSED
E6AP ubiquitin-protein ligase, UBE3A (human), sequence (Q05086 whole entry): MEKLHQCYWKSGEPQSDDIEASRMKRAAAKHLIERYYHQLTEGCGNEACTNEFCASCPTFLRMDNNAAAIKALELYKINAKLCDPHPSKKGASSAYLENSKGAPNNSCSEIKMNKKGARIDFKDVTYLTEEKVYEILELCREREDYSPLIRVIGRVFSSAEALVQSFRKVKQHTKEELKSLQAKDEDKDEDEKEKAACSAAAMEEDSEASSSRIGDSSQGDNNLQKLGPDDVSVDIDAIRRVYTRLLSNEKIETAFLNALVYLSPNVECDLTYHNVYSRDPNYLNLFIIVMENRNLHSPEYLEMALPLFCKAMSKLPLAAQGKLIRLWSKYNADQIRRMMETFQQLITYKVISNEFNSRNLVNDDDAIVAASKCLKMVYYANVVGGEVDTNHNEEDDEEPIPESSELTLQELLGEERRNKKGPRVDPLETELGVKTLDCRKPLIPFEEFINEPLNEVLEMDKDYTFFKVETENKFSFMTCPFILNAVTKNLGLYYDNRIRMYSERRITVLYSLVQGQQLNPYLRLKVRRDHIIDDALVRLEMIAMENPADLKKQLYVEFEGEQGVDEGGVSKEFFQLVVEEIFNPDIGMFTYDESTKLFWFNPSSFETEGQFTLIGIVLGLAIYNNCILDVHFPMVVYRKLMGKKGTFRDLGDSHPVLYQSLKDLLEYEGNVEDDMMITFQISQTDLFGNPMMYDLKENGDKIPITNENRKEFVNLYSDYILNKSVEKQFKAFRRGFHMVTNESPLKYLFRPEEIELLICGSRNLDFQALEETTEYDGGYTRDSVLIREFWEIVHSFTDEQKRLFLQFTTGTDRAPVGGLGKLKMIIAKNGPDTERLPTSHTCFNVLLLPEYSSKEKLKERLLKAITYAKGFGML
CUL3-interacting protein I. KLHL12 (human), sequence (Q53G59 whole entry): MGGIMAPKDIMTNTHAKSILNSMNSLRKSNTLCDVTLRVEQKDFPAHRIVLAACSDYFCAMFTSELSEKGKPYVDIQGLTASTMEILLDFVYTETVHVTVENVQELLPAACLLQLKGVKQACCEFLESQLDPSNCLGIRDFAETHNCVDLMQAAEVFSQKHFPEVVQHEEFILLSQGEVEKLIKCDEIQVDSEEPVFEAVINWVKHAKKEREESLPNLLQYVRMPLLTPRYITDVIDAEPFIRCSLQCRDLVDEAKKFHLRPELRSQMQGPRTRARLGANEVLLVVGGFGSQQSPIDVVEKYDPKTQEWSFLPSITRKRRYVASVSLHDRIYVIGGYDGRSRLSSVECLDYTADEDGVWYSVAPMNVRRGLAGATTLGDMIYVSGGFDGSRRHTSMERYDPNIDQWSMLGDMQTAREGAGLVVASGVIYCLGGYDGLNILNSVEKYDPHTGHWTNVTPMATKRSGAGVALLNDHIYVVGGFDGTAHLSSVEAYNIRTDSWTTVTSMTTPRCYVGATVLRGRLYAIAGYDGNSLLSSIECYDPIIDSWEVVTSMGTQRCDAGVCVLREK
endogenous NPL4 (human), sequence (Q8TAT6 other isoform, or with tags, fused parts or gaps limits assumed): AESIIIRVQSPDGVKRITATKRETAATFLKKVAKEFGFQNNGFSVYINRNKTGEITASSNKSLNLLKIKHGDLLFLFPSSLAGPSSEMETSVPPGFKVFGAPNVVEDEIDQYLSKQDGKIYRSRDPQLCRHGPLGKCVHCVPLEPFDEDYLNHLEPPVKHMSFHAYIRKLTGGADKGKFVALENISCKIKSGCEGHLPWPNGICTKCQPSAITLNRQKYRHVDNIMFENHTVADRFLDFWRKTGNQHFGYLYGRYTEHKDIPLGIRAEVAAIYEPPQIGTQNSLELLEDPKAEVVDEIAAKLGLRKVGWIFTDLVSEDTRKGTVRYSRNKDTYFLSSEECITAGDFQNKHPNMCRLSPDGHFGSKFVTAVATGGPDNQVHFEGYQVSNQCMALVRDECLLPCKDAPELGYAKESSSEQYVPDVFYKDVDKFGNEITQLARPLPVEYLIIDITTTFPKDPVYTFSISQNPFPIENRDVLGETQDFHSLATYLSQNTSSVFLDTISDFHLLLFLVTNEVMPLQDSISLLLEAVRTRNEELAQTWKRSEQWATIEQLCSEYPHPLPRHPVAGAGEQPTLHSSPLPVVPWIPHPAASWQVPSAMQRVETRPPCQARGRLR
DNA damage-binding protein I. DDB1 (human), sequence (Q16531 2-1140 limits assumed): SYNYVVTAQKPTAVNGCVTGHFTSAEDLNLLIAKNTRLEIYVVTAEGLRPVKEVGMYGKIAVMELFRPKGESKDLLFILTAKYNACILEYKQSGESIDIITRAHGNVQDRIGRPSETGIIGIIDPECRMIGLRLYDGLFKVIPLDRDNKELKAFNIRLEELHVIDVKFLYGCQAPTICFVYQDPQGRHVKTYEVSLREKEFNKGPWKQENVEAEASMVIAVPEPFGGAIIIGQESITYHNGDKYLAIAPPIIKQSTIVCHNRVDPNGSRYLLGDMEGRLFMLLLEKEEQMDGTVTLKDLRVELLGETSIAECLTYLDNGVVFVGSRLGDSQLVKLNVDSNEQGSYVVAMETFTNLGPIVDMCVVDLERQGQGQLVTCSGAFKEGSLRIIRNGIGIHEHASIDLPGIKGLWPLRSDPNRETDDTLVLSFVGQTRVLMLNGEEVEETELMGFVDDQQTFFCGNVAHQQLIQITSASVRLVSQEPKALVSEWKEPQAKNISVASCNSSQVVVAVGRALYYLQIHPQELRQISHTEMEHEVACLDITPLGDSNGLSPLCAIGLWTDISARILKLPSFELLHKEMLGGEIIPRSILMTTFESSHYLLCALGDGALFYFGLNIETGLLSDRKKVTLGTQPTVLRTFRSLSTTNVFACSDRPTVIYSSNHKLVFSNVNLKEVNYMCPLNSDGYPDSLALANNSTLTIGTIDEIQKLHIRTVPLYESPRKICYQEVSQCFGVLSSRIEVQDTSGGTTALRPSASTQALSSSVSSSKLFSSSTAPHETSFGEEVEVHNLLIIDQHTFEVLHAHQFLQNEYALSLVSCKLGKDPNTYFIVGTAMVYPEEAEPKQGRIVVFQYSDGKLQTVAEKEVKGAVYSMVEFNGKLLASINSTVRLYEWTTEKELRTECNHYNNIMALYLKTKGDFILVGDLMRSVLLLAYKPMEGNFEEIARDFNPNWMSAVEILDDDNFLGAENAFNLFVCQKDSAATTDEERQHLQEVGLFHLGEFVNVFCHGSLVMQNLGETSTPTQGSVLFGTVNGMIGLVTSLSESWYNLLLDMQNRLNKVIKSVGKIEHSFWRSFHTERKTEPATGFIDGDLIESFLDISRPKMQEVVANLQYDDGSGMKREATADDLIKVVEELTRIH
gp78 (human), sequence (Q9UKV5 whole entry): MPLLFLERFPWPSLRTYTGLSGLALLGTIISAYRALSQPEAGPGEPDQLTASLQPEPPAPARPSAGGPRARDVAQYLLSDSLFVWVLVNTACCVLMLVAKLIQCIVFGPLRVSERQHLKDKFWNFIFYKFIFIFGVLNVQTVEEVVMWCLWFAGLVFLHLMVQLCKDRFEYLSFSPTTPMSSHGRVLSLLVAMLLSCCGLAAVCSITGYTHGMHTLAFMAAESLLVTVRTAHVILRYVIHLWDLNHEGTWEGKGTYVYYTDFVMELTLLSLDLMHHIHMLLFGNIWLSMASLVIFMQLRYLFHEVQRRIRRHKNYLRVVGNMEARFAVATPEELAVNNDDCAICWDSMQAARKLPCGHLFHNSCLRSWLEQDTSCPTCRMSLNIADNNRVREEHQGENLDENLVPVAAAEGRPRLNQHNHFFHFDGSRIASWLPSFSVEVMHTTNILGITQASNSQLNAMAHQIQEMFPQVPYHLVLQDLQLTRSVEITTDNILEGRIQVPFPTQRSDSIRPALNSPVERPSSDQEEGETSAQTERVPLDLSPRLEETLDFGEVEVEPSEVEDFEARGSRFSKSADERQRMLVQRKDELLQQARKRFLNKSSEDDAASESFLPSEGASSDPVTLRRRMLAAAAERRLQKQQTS

Flag-UBXD8 (from UniProt Q96CS3 1-445)
sequence count [1]: 10 | sequence coverage [1]: 20.1% | spectrum count [1]: 15 | sequence count [2]: 11 | sequence coverage [2]: 20.6% | spectrum count [2]: 209 | abundance factor (AF) [3]: 0.4 | sequence count [3]: 3 | spectrum count [3]: 5 | abundance factor (AF) [4]: 0.3 | sequence count [4]: 2 | spectrum count [4]: 2 | abundance factor (AF) [5]: 1.2 | sequence count [5]: 2 | spectrum count [5]: 4 | abundance factor (AF) [6]: 0.3 | sequence count [6]: 3 | spectrum count [6]: 3 | abundance factor (AF) [7]: 0.2 | sequence count [7]: 3 | spectrum count [7]: 5 | abundance factor (AF) [8]: 0.5 | sequence count [8]: 2 | spectrum count [8]: 2 | abundance factor (AF) [9]: 0.2 | sequence count [9]: 3 | spectrum count [9]: 3 | abundance factor (AF) [10]: 0.7 | sequence count [10]: 3 | spectrum count [10]: 3 | abundance factor (AF) [11]: 0.2 | sequence count [11]: 2 | spectrum count [11]: 2 | abundance factor (AF) [12]: 0.7 | sequence count [12]: 3 | spectrum count [12]: 4 | abundance factor (AF) [13]: 0.3 | sequence count [13]: 6 | spectrum count [13]: 6 | abundance factor (AF) [14]: 1.9 | sequence count [14]: 4 | spectrum count [14]: 6 | abundance factor (AF) [15]: 0.8 | sequence count [15]: 9 | spectrum count [15]: 10 | abundance factor (AF) [16]: 5.7 | sequence count [16]: 2 | spectrum count [16]: 3 | abundance factor (AF) [17]: 0.5 | sequence count [17]: 2 | spectrum count [17]: 2 | abundance factor (AF) [18]: 0.3 | sequence count [18]: 6 | spectrum count [18]: 6

Flag-UBXD7 (from UniProt O94888 1-489)
sequence count [1]: 2 | sequence coverage [1]: 4% | spectrum count [1]: 2 | sequence count [2]: 14 | sequence coverage [2]: 24.5% | spectrum count [2]: 33 | abundance factor (AF) [3]: 2.1 | sequence count [3]: 2 | spectrum count [3]: 3 | abundance factor (AF) [4]: 12.4 | sequence count [4]: 11 | spectrum count [4]: 11 | abundance factor (AF) [5]: 46.4 | sequence count [5]: 12 | spectrum count [5]: 19 | abundance factor (AF) [6]: 1.4 | sequence count [6]: 2 | spectrum count [6]: 2 | abundance factor (AF) [7]: 4.5 | sequence count [7]: 12 | spectrum count [7]: 18 | abundance factor (AF) [8]: 5.9 | sequence count [8]: 3 | spectrum count [8]: 3 | abundance factor (AF) [19]: 6.1 | sequence count [19]: 3 | spectrum count [19]: 3 | abundance factor (AF) [20]: 18.1 | sequence count [20]: 6 | spectrum count [20]: 8 | abundance factor (AF) [10]: 5.5 | sequence count [10]: 2 | spectrum count [10]: 3 | abundance factor (AF) [21]: 6 | sequence count [21]: 3 | spectrum count [21]: 3 | abundance factor (AF) [22]: 37 | sequence count [22]: 13 | spectrum count [22]: 23 | abundance factor (AF) [12]: 2.6 | sequence count [12]: 13 | spectrum count [12]: 13 | abundance factor (AF) [13]: 2.1 | sequence count [13]: 41 | spectrum count [13]: 49 | abundance factor (AF) [15]: 0.2 | sequence count [15]: 2 | spectrum count [15]: 2 | abundance factor (AF) [16]: 20 | sequence count [16]: 8 | spectrum count [16]: 10

Flag-SAKS1 (from UniProt Q04323 1-297)
sequence count [1]: 26 | sequence coverage [1]: 32.1% | spectrum count [1]: 90 | abundance factor (AF) [3]: 2.8 | sequence count [3]: 5 | spectrum count [3]: 7 | abundance factor (AF) [4]: 1.3 | sequence count [4]: 2 | spectrum count [4]: 2 | abundance factor (AF) [6]: 0.8 | sequence count [6]: 2 | spectrum count [6]: 2 | abundance factor (AF) [7]: 3.8 | sequence count [7]: 18 | spectrum count [7]: 27 | abundance factor (AF) [8]: 3.3 | sequence count [8]: 3 | spectrum count [8]: 3 | abundance factor (AF) [9]: 2.6 | sequence count [9]: 9 | spectrum count [9]: 10 | abundance factor (AF) [19]: 2.3 | sequence count [19]: 2 | spectrum count [19]: 2 | abundance factor (AF) [20]: 6.4 | sequence count [20]: 2 | spectrum count [20]: 5 | abundance factor (AF) [10]: 3.1 | sequence count [10]: 3 | spectrum count [10]: 3 | abundance factor (AF) [21]: 2.3 | sequence count [21]: 2 | spectrum count [21]: 2 | abundance factor (AF) [22]: 2.7 | sequence count [22]: 3 | spectrum count [22]: 3 | abundance factor (AF) [11]: 1.3 | sequence count [11]: 3 | spectrum count [11]: 6 | abundance factor (AF) [12]: 0.7 | sequence count [12]: 2 | spectrum count [12]: 2 | abundance factor (AF) [13]: 5.7 | sequence count [13]: 30 | spectrum count [13]: 74 | abundance factor (AF) [14]: 3.6 | sequence count [14]: 3 | spectrum count [14]: 6 | abundance factor (AF) [15]: 2 | sequence count [15]: 9 | spectrum count [15]: 14 | abundance factor (AF) [17]: 2.2 | sequence count [17]: 4 | spectrum count [17]: 5 | abundance factor (AF) [18]: 0.6 | sequence count [18]: 4 | spectrum count [18]: 7
